Earlier results in publication PMC7689341.
Read-outs that look alike come from different tables or passages of the source. One block for each substance: values may come before it.

How the values were obtained:
IFNAR1 (Mus musculus) = IFNAR1 (Mus musculus) (UniProt P33896)
IFNAR2 (Mus musculus) = IFNAR2 (Mus musculus) (UniProt O35664)
[1] = target: IFNλ3/IFNλR1 complex (Homo sapiens) (UniProt Q8IZI9)
IFNAR2 (Homo sapiens) [2] = target: IFNAR2 (Homo sapiens) (UniProt P48551)
IFNλR1 (Homo sapiens) = IFNλR1 (Homo sapiens) (UniProt Q8IU57)
IFNAR2 (Homo sapiens) [3] = target: IFNAR2 (Homo sapiens) (UniProt P48551); remark: listed apart in the source
IFNAR1 (Homo sapiens) = IFNAR1 (Homo sapiens) (UniProt P17181)
Chain of IFNAR1 (Homo sapiens) (P17181 28-436): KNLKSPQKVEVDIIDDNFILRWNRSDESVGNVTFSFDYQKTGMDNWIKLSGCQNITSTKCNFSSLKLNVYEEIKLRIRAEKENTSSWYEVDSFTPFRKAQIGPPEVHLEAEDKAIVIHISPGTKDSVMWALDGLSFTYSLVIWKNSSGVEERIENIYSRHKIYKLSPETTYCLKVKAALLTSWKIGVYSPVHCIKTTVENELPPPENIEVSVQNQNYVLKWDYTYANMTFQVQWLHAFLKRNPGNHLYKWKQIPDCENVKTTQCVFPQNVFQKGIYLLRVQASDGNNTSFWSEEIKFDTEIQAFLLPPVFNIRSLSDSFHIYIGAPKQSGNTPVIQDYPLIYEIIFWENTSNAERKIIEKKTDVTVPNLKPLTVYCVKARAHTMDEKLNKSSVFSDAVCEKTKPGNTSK

Chain of IFNβ (from UniProt P01574) (P01574 22-187): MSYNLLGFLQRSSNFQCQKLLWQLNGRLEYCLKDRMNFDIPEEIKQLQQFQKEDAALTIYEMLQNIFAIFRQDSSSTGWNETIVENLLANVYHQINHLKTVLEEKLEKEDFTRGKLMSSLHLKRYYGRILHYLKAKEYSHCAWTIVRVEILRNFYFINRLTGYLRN
Chain of IFNAR2 (Homo sapiens) (P48551 27-243): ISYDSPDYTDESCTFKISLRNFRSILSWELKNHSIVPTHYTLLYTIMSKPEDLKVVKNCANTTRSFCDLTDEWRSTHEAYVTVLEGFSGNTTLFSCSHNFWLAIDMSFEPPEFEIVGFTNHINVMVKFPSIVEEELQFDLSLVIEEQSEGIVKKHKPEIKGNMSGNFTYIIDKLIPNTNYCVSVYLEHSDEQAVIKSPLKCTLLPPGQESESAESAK
Chain of IFNβ (from UniProt P01575) (P01575 22-182): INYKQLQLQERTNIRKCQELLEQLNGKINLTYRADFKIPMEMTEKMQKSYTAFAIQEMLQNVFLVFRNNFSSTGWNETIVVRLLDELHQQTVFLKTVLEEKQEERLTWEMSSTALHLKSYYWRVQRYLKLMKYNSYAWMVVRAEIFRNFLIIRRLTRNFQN
Chain of IFNAR1 (Mus musculus) (P33896 27-429): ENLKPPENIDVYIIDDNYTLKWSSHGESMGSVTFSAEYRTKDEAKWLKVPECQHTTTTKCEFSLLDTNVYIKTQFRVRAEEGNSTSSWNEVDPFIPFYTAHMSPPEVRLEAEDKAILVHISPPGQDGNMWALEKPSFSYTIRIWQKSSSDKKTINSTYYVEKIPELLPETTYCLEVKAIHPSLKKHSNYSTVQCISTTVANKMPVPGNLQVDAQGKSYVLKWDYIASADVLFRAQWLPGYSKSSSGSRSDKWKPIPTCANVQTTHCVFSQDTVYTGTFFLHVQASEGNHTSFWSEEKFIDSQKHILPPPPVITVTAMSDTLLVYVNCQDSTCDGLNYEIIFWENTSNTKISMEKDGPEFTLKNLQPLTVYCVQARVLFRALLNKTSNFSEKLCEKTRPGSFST
Chain of IFNλR1 (Homo sapiens) (Q8IU57 21-228): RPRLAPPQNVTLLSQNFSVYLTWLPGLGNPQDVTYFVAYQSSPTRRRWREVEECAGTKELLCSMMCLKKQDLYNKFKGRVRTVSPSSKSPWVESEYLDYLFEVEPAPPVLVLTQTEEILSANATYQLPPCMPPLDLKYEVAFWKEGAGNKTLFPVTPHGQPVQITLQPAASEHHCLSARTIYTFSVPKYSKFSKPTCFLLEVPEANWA
Chain of IL-10R2 (Q08334 20-220): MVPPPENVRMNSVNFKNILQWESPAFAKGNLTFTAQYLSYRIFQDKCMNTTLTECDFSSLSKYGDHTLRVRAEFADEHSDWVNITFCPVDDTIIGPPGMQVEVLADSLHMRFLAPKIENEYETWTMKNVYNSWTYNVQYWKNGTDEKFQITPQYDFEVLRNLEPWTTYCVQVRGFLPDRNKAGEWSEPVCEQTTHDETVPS
Chain of IFNλ3 (Q8IZI9 22-196): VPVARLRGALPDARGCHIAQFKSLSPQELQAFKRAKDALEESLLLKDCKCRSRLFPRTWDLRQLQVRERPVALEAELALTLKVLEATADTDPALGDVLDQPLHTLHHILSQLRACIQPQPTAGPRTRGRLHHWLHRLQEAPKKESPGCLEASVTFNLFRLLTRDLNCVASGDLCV
Chain of IFNλ3/IFNλR1 complex (Homo sapiens) (Q8IZI9 22-196, chain 1 of 2): as the sequence (Q8IZI9 22-196) above
Chain of IFNλ3/IFNλR1 complex (Homo sapiens) (Q8IU57 21-228, chain 2 of 2, further chain): as the sequence (Q8IU57 21-228) above
Chain of IFNAR2 (Mus musculus) (O35664 22-242): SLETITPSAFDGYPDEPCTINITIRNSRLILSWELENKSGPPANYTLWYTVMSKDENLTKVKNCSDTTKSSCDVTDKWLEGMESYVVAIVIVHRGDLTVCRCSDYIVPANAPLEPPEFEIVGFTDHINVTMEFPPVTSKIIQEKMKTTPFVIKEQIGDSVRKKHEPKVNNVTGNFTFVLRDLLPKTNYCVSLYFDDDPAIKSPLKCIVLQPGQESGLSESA

Substance: IFNβ (from UniProt P01575)
- Kd (IFNAR1 (Mus musculus)): 10 nM
- Kd (IFNAR2 (Mus musculus)): 1700 nM

Substance: IFNα1 (from UniProt P0DY56)
- Kd (IFNAR2 (Homo sapiens) [2]): 100 nM

Substance: IFNβ (from UniProt P01574)
- Kd (IFNAR2 (Homo sapiens) [3]): 0.1 nM
- Kd (IFNAR1 (Homo sapiens)): 30 nM

More lines, now with the values ahead:

- Kd [1]: 15000 nM
Substance: IL-10R2 (from UniProt Q08334)

- Kd (IFNλR1 (Homo sapiens)): 850 nM
Substance: IFNλ3 (from UniProt Q8IZI9)
